# Reference: patent publication US20120128758A1
# Target: mAb 2F5
# Assay: cell-based or functional assay
binder,measurement,value
"QQEKNEQELLELDKWASLWN (modifications not checked) [SP62 peptide (gp41 652-671), …]",IC50 of 2F5 mAb against TND-669S pseudovirus after pre-absorption with 0.3 µM peptide,0.911 µg/mL
